Assay results as given in patent publication US20240327543A1 (SHENGHE CHINA BIOPHARMACEUTICAL, published 2024).
Where two headings read alike, the source gives them in different places.

Tests used:
Human-NKP30-His [1] = target: T1, Human-NKP30-His (human, UniProt O14931 19-135, limits assumed); assay: ELISA, plate coated with Human-NKP30-His, detection with HRP goat anti-human IgG-Fc
T1 construct: Coated on the ELISA plate at 0.5 µg/mL; also called NKP30 protein; not shown: His tag
T1 sequence (looked up): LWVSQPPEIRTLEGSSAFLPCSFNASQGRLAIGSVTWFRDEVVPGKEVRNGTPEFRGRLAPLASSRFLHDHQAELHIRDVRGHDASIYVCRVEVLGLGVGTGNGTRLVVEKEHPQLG
Procedure: (§1) Human-NKP30-His was diluted to 0.5 μg/mL with PBS buffer at pH 7.4, added into the 96-well ELISA plate at 100 μL per well, coated overnight at 4° C., and blocked with 1% BSA blocking solution for 1 hour. The plate was washed 3 times with PBST, and the constructed antibodies were diluted to 10 μg/mL with 0.5% BSA sample diluent as the starting concentration, and then diluted by 3-fold gradient (11 gradients in total). A negative control (blank well and IgG1 isotype control) and a positive control were set, and the positive control was a NKP30 humanized antibody (sequence shown in SEQ ID No.32), and incubated at 37° C. for 1 h at 100 μL per well. […] The absorbance value of each well in the 96-well plate was determined by selecting the wavelength of 450 nm and the reference wavelength of 570 nm on a multifunctional enzyme marker, and the absorbance value (OD)=OD₄₅₀ₙₘ−OD₅₇₀ₙₘ. The logarithm of the concentration of the constructed antibodies were taken as the abscissa, and the measured absorbance value of each well was taken as the ordinate, and the Sigmoidaldose-response (Variable Slope) method (GraphPad Prism software, GraphPad Software, San Diego, California) was selected for nonlinear regression to obtain the binding curve of the target antibody to NKP30 protein.

Human-NKP30-His [2] = target: T1, Human-NKP30-His; assay: as above; remark: listed apart in the source
Procedure: as §1

EC50 (read off the curve) (Human-NKP30-His [1]): ~0.03 µg/mL | EC50 (read off the curve) (Human-NKP30-His [2]): ~0.03 µg/mL
B1: NKP30 humanized antibody (SEQ ID No.32) (antibody, human IgG4 S228P, V domains shown)
VH: EVQLVESGGGLVQPGGSLRLSCAASGITFSRSVMGWFRQAPGKLRELVAGITSDDNTDYADSVKGRFTISRDNSKNTLYLQMNSLRAEDTAVYYCNILPDSRLGWGQGTLVTVSS
notes: It was detected with anti-human IgG-Fc; also called positive control; NKP30 monoclonal antibody
